The results in this text go back to patent US20220411487A1 (Regeneron, published 2022).

The labels stand for the following.
T1: full length mouse TMPRSS6 on HEK293 cells (HEK293/mTMPRSS6) (mouse, UniProt Q9DBI0 1-811)
T1 sequence: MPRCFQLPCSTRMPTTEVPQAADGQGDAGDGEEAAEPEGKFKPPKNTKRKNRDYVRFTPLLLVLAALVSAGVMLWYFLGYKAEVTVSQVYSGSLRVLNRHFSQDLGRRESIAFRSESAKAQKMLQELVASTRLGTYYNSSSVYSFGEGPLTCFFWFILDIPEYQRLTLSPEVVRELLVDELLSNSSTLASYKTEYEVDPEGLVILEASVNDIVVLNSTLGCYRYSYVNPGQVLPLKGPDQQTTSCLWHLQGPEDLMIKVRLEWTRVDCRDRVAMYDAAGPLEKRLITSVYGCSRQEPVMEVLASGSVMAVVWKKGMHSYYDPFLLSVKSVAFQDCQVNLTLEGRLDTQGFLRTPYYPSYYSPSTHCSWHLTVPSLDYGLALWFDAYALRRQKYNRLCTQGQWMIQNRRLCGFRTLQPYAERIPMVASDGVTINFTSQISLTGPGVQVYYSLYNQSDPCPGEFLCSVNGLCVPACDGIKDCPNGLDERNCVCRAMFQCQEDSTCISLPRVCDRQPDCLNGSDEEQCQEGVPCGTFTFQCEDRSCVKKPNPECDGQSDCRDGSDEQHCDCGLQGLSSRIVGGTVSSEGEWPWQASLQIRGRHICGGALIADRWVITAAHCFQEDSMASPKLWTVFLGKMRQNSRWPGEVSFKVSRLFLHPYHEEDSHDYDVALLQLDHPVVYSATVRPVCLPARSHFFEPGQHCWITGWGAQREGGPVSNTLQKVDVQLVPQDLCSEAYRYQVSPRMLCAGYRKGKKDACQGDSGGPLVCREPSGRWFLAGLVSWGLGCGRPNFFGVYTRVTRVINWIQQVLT

B1: REGN7977 (antibody, V domains shown)
VH: EVQLVESGGGLVKPGGSLRVSCAASGVTFSNVWMSWVRQVPGKGLEWVGRIKSKTDGGTTDYAAPVKGRFTISKDDSKNTLFLQMNSLKTEDTAVYYCTTETGDFWSGYYPRFQHWGQGTLVTVSS
VL: DIQMTQSPSSLSASVGDRVTITCRASQYISTYLNWYQQKPGKAPSLLIYAASSLQSGVPSRFSGSGSGTDFTLTISSLQPEDFASYSCQQSYSTPPYTFGQGTKLEIKR
notes: fully human; human IgG4 Fc with hinge S108P; also called mAb41465
B2: REGN7999 (antibody, human IgG4 S228P, kappa, V domains shown)
VH: EVQLVESGGGLVQPGGSLRLSCAASGFTFSSYAMTWVRQAPGKGLEWVSAISGSDTSTYYADSVKGRFTISRDNSKNTLFLQMNSLRAEDTAVYYCAKHQDYDFSYYYSAMDVWGQGTTVTVSS
VL: DIQMTQSPSSLSASVGDRVIITCRASQDFNSWLAWYQQKPGKAPKLLIYAASSLQSGVPSRFSGSGSGTDFTLTISSLQPEDFATYYCQQTDSFPFTFGPGTKVDIKR
notes: fully human; human IgG4 Fc with hinge S108P; also called mAb41450
B3: REGN8023 (antibody, human IgG4 S228P, kappa, V domains shown)
VH: EVQLVESGGGLVKPGGSLRISCAASGFIFVDYAMHWVRQAPGKGLEWVSGISWNSGSIGYADSVKGRFTISRDNAKKSLYLQMSGLRPEDTALYYCVKSGFYYVRSYFDNWGQGTLVTVSS
VL: DIVMTQSPLSLPVTPGEPASISCRSSQSLLDSDDGNTYLDWYLRKPGQSPQLLIYTLSYRASGVPDRFSGSGSGTDFTLKISRVEADDVGVYYCMQRIEFPLTFGGGTKVEIKR
notes: fully human; human IgG4 Fc with hinge S108P; also called mAb37699
Throughout, for % inhibition, HEK293 bioassay, overnight pre-incubation 37 C: test concentration or dose not given here.

This assay deals with T1, full length mouse TMPRSS6 on HEK293 …. The assay is described as follows: cell-based or functional assay.
Regarding B1, the “% inhibition, HEK293 bioassay, overnight pre-incubation 37 C” value is 97% and the “IC50, HEK293 bioassay, overnight pre-incubation 37 C” value stood at 14 nM.
The like results for B2 were, in that order, 103% and 2.1 nM.
For the molecule B3, the “% inhibition, HEK293 bioassay, overnight pre-incubation 37 C” value is 98% and the “IC50, HEK293 bioassay, overnight pre-incubation 37 C” value turned out to be 1.2 nM.
